Laboratory results reported in US20060024314A1, “Antibodies and cyclic peptides which bind CEA (carcinoembryonic antigens) and their use as cancer therapeutics” (priority 1998, published 2006).
One block for each molecule: values may come before it. Bridge positions count the residues as written; N and C are the ends.

Tests used:
CEA mutant D82N (human) = CEA mutant D82N (human) (UniProt P06731); assay: cell-based or functional assay
[1] = tested on: CEA-mediated intercellular adhesion; settings: from references (29) and (16); cited from earlier work
CEA mutant Q80R (human) = CEA mutant Q80R (human) (UniProt P06731); assay: cell-based or functional assay
[2] = target: CEA double mutant Q44R+I46V (human) (UniProt P06731); assay: cell-based or functional assay
[3] = target: T1, human carcinoembryonic antigen (CEA), wild type (human, UniProt P06731 35-685, GPI membrane anchor); assay: cell-based or functional assay
T1 sequence (looked up): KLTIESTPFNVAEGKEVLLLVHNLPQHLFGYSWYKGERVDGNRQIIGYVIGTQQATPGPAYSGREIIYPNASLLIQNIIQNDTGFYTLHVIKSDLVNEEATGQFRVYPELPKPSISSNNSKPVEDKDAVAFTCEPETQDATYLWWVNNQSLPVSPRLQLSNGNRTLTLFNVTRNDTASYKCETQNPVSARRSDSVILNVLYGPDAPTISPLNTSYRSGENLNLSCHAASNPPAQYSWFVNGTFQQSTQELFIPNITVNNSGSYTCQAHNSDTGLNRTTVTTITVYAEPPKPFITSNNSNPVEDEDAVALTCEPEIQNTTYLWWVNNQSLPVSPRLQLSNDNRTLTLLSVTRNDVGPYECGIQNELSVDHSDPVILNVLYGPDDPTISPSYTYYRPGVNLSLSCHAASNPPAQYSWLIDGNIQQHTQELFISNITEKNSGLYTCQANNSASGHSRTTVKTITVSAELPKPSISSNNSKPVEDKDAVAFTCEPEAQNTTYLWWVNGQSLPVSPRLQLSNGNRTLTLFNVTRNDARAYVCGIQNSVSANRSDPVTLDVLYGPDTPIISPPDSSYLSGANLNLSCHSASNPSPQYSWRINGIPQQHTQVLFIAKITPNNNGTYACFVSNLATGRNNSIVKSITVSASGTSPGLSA

Molecule: H-CQNDTGC-OH (disulfide 1-7; SMILES C[C@@H](O)[C@@H]1NC(=O)[C@H](CC(=O)O)NC(=O)[C@H](CC(N)=O)NC(=O)[C@H](CCC(N)=O)NC(=O)[C@@H](N)CSSC[C@@H](C(=O)O)NC(=O)CNC1=O) [cyclized peptide QNDTG, cyclized peptide representing subdomain 3 of the CEA N domain]
inhibition of CEA-mediated intercellular adhesion [1]: effective in inhibiting CEA-mediated intercellular adhesion

Molecule: CEA mutant Q80R (from UniProt P06731 35-702)
degree of differentiation of L6 transfectants (CEA mutant Q80R (human)): 81%

Molecule: CEA double mutant Q44R+I46V (from UniProt P06731 35-702)
degree of differentiation of L6 transfectants [2]: 100%

B1: cyclized peptide H-CQNDTGC-OH (subdomain 3) (peptide)
peptide: H-CQNDTGC-OH
modifications: disulfide 1-7
SMILES: C[C@@H](O)[C@@H]1NC(=O)[C@H](CC(=O)O)NC(=O)[C@H](CC(N)=O)NC(=O)[C@H](CCC(N)=O)NC(=O)[C@@H](N)CSSC[C@@H](C(=O)O)NC(=O)CNC1=O
% fusion of L6(CEA) cells (release of the myogenic differentiation block), peptide at 100 µM [3]: 36%

B3: cyclized peptide H-CGNRQIIC-OH (subdomain 2) (peptide)
peptide: H-CGNRQIIC-OH
modifications: disulfide 1-8
SMILES: CC[C@H](C)[C@@H]1NC(=O)[C@H](CCC(N)=O)NC(=O)[C@H](CCCNC(=N)N)NC(=O)[C@H](CC(N)=O)NC(=O)CNC(=O)[C@@H](N)CSSC[C@@H](C(=O)O)NC(=O)[C@H]([C@@H](C)CC)NC1=O
% fusion of L6(CEA) cells (release of the myogenic differentiation block), peptide at 100 µM [3]: 28%

Results, then the molecule that gave them:

degree of differentiation of L6 transfectants (CEA mutant D82N (human)): 100%
Molecule: CEA mutant D82N (from UniProt P06731 35-702)

% fusion of L6(CEA) cells (release of the myogenic differentiation block), peptide at 100 µM [3]: 18%
B2: cyclized peptide H-CGYSWYKC-OH (subdomain 1) (peptide)
peptide: H-CGYSWYKC-OH
modifications: disulfide 1-8
SMILES: NCCCC[C@@H]1NC(=O)[C@H](Cc2ccc(O)cc2)NC(=O)[C@H](Cc2c[nH]c3ccccc23)NC(=O)[C@H](CO)NC(=O)[C@H](Cc2ccc(O)cc2)NC(=O)CNC(=O)[C@@H](N)CSSC[C@@H](C(=O)O)NC1=O
